Laboratory results: the DeepSol protein solubility set

Assay: soluble on expression in E. coli; label from the status in PepcDB or PDB records
In the case of “MGSDKIHHHHHHVKFRVDRDAFADAVTWTARALPARPAVPVLAGMRLEVADTASDTLRLSGFDYEVSAQASVDVHAEEAGSVLVPGRLLAEIVRTLPPHPVEFHVEGSRALLTCGNARFTLLTLPLEDYPTLPAMPRTIGSAPADVFATAVRQVLPSTSRDDTLPMLTGVHLTFRGDTILLAATDRYRIAVREMWWKPEEVDIDTSALVPARTLGDFSRSLTGGNVDIALSTSDSRGAGEGMIGFEHDGKRTTTRLIDSDFVSYESRFPTEFAAQADVPVAPLAEAVKRVALVADRSTPVRLSFTSSEVVLEAGSGDDAQALEALEVNFEGEPMRIAFNPQYFLDGLTNVETERAFLRFVAPTRPAVITGTPAKEGGKPDFRYLVMPLRLA”, the “soluble on expression in E. coli” value is reported as “not soluble”. For “MGSDKIHHHHHHVKIRLALPQDVDLLAMLEKKHLNDELASANMGLQGQAFSHSELSELVQRHWVVVAQVEQQIVGYVIAGRWGFFEHWPIYRTLLNRLGQLDWDGPKLTKTNSCQYGPIWVQQAYRGQGIFEALVSEIRRQVAPHFSYMLTFIAEDNERSFAAHSGKAHMQVVDFFTVSARDYYLMAAKTQA”, the “soluble on expression in E. coli” value was “not soluble”. In the case of “MGSDKIHHHHHHVLSNPSQVVLRNIELFESKNVLLINHECDLLATALLEDAAKVTTLALDFNHFQRIKSHENARLQCHFGHQLPSTQTFDAVVLFYPKSKSLAPYLLNLAGRHLIPGGELVIVGEKKGGIRSITKQLPDYFDGGIKLDNARHCMLYSSSLLSEAPEIKLSDWVKDYVLSTPQGELTICNLVGVFSEKRLDEGTELLLEHLPTLKGRVLDFGCGAGVITAALLKANPDLELECVDINAMALASCELTLAANGMQAKVYASDGLTQTQGMFDAIISNPPFHDGLDSTTEIATRFVQESEAQLKSGGIFQIVANRHLPYSDTIAKFFKTVNVAAENNKYKIYANRKA”, the “soluble on expression in E. coli” value is reported as “not soluble”. With “MGSDKIHHHHHHVRVTSSSGSCITIPTGVTNVTIRDSEIGPCGQPGDTSAKGIDIQSGASNITVQRNYIHDMATALYAAGARHPIIFDRNRVTNIRGPFPRGQMVQFNGVKSGTSGSKVTCNVSDVQGATYSNVEDHINMYDSGGLSNDRTEIAYNRLRGGSPTSNSGTAIMVGDGASGGNAWVHHNTIVNVRNVGIGVAGGTNIDVESNRIYMDRAATYTNVGLYVWSQGGGSCSGHSVTGNRAWVNSSNGAQNPWWNGGNCGAVELVSNVWGDTSLSSSMFNEVPSQCQ” the “soluble on expression in E. coli” value was “not soluble”. For “MGSDKIHHHHHHVSDLLSQDEIDALLHGVDDVDDDDDLDAASQDARSYDFSSQDRIVRGRMPTLEIVNERFARHLRISMFNMMRRAAEVSINGVQMLKFGEYVHTLFVPTSLNMVRFSPLKGTALITMEARLVFILVDNFFGGDGRFHAKIEGREFTPTERRIVQLLLKIIFEDYKDAWAPVMDVEFDYLDSEVNPAMANIVSPTEVVVINSFHIEVDGGGGDFHITMPYSMIEPIRELLDAGVQSDKQDTDMRWSQALHDEIMDVKVGFDACVVEHELTLKDVMNFKAGDIIPVELPEYIMMKIEDLPTYRCKMGRSRDNLALKIYEKIPRPETVKTELQLVTRKGKARDISEL”, the “soluble on expression in E. coli” value was “not soluble”. For “MGSDKIHHHHHHVSEKMWGCCPNHWKSFGSSCYLISTKENFWSTSEQNCVQMGAHLVVINTEAEQNFITQQLNESLSYFLGLSDPQGNGKWQWIDDTPFSQNVRFWHPHEPNLPEERCVSIVYWNPSKWGWNDVFCDSKHNSICEMKKIYL”, the “soluble on expression in E. coli” value was “not soluble”. With “MGSDKIHHHHHHVSENTLKPQVNKLLAALPTNDYERLIPHLKLVSLPTRQVIYEPGEPIKQVYFPQNAVVSIVTGMKDGSTVEVGIVSNEGMVGIPVILGGSTTTTKAFVQVAGSGVQIDADVLRTEFNRGGAIQNLLLRYIRATYTELTQGCACNRLHTLEERLARWLLTVSDRLESEEFPLTQEFIAQMLGVRRSGVTVAASALSRAGMISYQRGQINILNREDLEETSCECYRVIQNEFARLLKNQPKRDRR” the “soluble on expression in E. coli” value was “not soluble”. For “MGSDKIHHHHHHVSKPPTIVSVPMPCGSTIEIVAPGSFHIPRVLADGGLKNYEVHSTAAALALMERSEGAFYDIGANIGVFSLCVASALRRRCHAYEPFPDAATVLDELQVRYQLPIAVHRKGVGQTAGQAQFYLSDRSDMSNSLNPNFRKHRGVLDVEVTTLEIELKRDKPAVLKIDTETTEDQVITGGLNQIAHHRPSIIVELLNEAIAGKVRKLLLPLGYRCYAIGGGLRLQELSPIETSLEGDGRNWLFSPNPLDQEFADTFNKWRGVLFSI”, the “soluble on expression in E. coli” value was “not soluble”. In the case of “MGSDKIHHHHHHYLFQTYGSNKGEIIECKNCYCFKDQWNNIKNNPSINKNAKVLSCWLYYDKASPKPALKIMLINKNKFHRFQYVDAICKNDEIVLEFNGTYKNLENEFSKGISTDEFMTSLDTVWKNAHNIFKTPSSKYSLFVTSKHSNSITKQSNAFYIGKNGALTKISEKDFPLNDVNYMNCSKLDEQDKSSENACIIFK”, the “soluble on expression in E. coli” value is reported as “not soluble”. With “MGSFPNFGAFILRAQEKDGRTCINGLPVASPAKQMLGRFPYLQSLQHDNLSVYLHFSETVIARDLVIVVMEHYTMNLEDILKTGNLKDESLNNNFYSEISSALDYLHTRNIVHGFLHLNSIYITDRKNQKLSVKLSGYGLPFLTNYGKDTASSIKFGAFLAPERILNDEDSLFAATYQSDVWELGFIILQIYLGISLEAEVTETEYLEILNKYYTDDQEKLSTVMEDLIQLLADKKRLPYHKKCEWLEAIIRKCLQMCCSKRCSITEVAAEIEININGVKNNNNKYEYKVKTVEEMRAAVRKEVADNNDGFEKLSVENSFYLWKTCGSTPEIILLKKGIIQNHAPISSYPTVRFDDFLRLDSGVDSQSTFEYGVFDLPSKKTLTRKETGQRVSARMFHKIGILEDKDLLNGNILYETASNMLTVDHLLNASAVFGISSIISRLTNIGVIPTQRADVWCTLLDINETKWRDYLNLDVLASHSSDRQLEVDIPRCHQYDSYMTTPAIQESLRKVLKGWQIVTESQHFVYWQGCDSLATPFLLANMSKPHVAFACFKEFTYRYCHKFYLKDNSEVIKEYLGIFYHLVAYTDPVLYKHLKINGFDAELFAIPWFLTCFAHELPLSKLVLLWDETMMHGNAFPLMIALAMLNRLRDKLLAVNFNEMIIIIHDQPDLSIDEIIKNSRGYEKLIPPSCTFRAHASPWKGTSLSLQQLSSIHCPRMSSEELIWRIERKMVYVLDTRQESEFQSERFSDSFNHPNNNHEADIDWLRFLPGIVCSELPKCFVYGKNDKEAAERLTEAYVMKGVPYICLLHDHFEAVRNRDSVVVKP” the “soluble on expression in E. coli” value was “not soluble”. For “MGSGGVVHCRCAKCFCYPTKRRIRRRPRNLTILSLPEDVLFHILKWLSVEDILAVRAVHSQLKDLVDNHASVWACASFQELWPSPGNLKLFERAAEKGNFEAAVKLGIAYLYNEGLSVSDEARAEVNGLKASRFFSLAERLNVGAAPFIWLFIRPPWSVSGSCCKAVVHESLRAECQLQRTHKASILHCLGRVLSLFEDEEKQQQAHDLFEEAAHQGCLTSSYLLWESDRRTDVSDPGRCLHSFRKLRDYAAKGCWEAQLSLAKACANANQLGLEVRASSEIVCQLFQASQAVSKQQVFSVQKGLNDTMRYILIDWLVEVATMKDFTSLCLHLTVECVDRYLRRRLVPRYRLQLLGIACMVICTRFISKEILTIREAVWLTDNTYKYEDLVRMMGEIVSALEGKIRVPTVVDYKEVLLTLVPVELRTQHLCSFLCELSLLHTSLSAYAPARLAAAALLLARLTHGQTQPWTTQLWDLTGFSYEDLIPCVLSLHKKCFHDDAPKDYRQVSLTAVKQRFEDKRYGEISQEEVLSYSQLCAALGVTQDSPDPPTFLSTGEIHAFLSSPSGRRTKRKRENSLQEDRGSFVTTPTAELSSQEETLLGSFLDWSLDCCSGYEGDQESEGEKEGDVTAPSGILDVTVVYLNPEQHCCQESSDEEACPEDKGPQDPQALALDTQIPATPGPKPLVRTSREPGKDVTTSGYSSVSTASPTSSVDGGLGALPQPTSVLSLDSDSHTQPCHHQARKSCLQCRPPSPPESSVPQQQVKRINLCIHSEEEDMNLGLVRL”, the “soluble on expression in E. coli” value was “soluble”. In the case of “MGSHHHHHHRTPSDKPVAHVVANPQAEGQLQWLNRRANALLANGVELRDNQLVVPSEGLYLIYSQVLFKGQGCPSTHVLLTHTISRIAVSYQTKVNLLSAIKSPCQRETPEGAEAKPWYEPIYLGGVFQLEKGDRLSAEINRPDYLLFAESGQVYFGIIAL”, the “soluble on expression in E. coli” value is reported as “soluble”. For “MGSKAKKRVLLPTRPAPPTVEQILEDVRGAPAEDPVFTILAPEDPPVPFRMMEDAEAPGEQLYQQSRAYVAANQRLQQAGNVLRQRCELLQRAGEDLEREVAQMKQAALPAAEAASSG”, the “soluble on expression in E. coli” value was “soluble”. For “MGSLGFLAGGVMPLEQLKQELSEVKGVFGVNLFRPQTDAPKPSDIDELAGLLSSAFRQFGLDEPTVPTPDLSNGWEAKFEAVLAAKPAVFSCTFGIFSAEEFARIKATGIEAWVTVTNPEDALAAQKAGANALVVQGPEAGGHRSTWSIEVEPDERDLKTLLAAVKQAGVYLPLIAAGGLSTSADVAAILEAGASAASCGSAFLLSDEAGTSSLNREILDAAPALGLESVSSRAFSGRYARGVETRFTRSNEGLPPLYPYLNPMITSLRKVAGSAGNWDYAYCLVGVGLESIAKGSAKQILESLTPSALEHHHHHH”, the “soluble on expression in E. coli” value was “not soluble”. In the case of “MGSLYTSELSRAVSESVAAALQRSFQGELRSASALGSGWSTSAELLNRNDSTERYFVKLSEPQAVSMFSAEFEGIQAMAESETVRVPAPICYGNTAERSFIVLEYLELGGIGNEAVYRDFGEKLAAMHRCSSGGRGYGWHRGNTIGSTPQLNTWMHSWADFFVENRLRYQLKLARSRQGGRLRNEDALLQRVHSVLQEHEIQHQVTPSLVHGDLWTGNVATLRNQNEVVIFDPATYYGDREVDLAMTELFGRLPRAFYQAYDASWPLPKGYREKRRVIYNLYHILNHGALFGGGYYDQAQSMIETILR”, the “soluble on expression in E. coli” value is reported as “soluble”. With “MGSPLPFRLTCVWAGEPSMKKAIIFDCEFLCLEGSQRRFWCAAHDPDPVIAQIGAVKLGLEGGFPLLETYKVLISPVDRHGRRYAIDPFFTRLTGITEENIEAEGVPLQDALSSFDSFSEGAQCWSWGKDELNMMAISTYVAGIQPPMPACRFDNAVRLLLAAGMPVEDLAKTPSNSLADYYGVAHPPLQGHDALGDALSVSYALQHLLRSGKLKPEEFTLAAAAALEHHHHHH” the “soluble on expression in E. coli” value was “not soluble”. In the case of “MGSPTAEELTGCLFFSPDDGRIWLNDQRMLLLHSSSFGTLRREIIERLGQEPARGMFTRAGYLSGARDARLIRERWPLADATSAFRAGTHLHTLEGMAKVESLHFKFDAESGFYEGEFLWHNSCEADEHLAACGTGQDPVCWTEIGYAIGFVSGLFGQMVIFREVECRGMGHASCRVIGKTAEQWGDVERDLSYLSVAKTVAPAHTPALANAHYDAGPPTGTDQPLIGASAAFNAATQALQRVAMTPATVLISGESGVGKEMFARQLHQLSRNREGPFVALNCAAIPDNLIEAELFGVERGAYTGATHSRPGRFERANGGTLFLDEITSLSLAGQSKLLRALQEREIERVGGGHGIKVNVRVVAATNVDLRKAVAEGDFREDLFYRLNVYPIALPPLRERRDDIPLLINAFLQRFCHEYGRTPAGLTMRALKTLLRYDFAGNVRELQNLIERGLIASDEGQAIDLVHIFRNESLPVDSYSLNHDGALSKAAPPIAHTAQGAALLDTLSQEKQAFSIEELEQQLIREALEKSAGNLAAASRLLGLSRAQFA”, the “soluble on expression in E. coli” value is reported as “not soluble”. With “MGSQAIEAHREGAEVYHGAALCAEKAVELLAEIHMPLGLLPLAEMEEVGYNRATGFVWLRQKKAITHTFKQISRQVSFAAEVTAFVEDRRMKRVTGAKTKELLIWVSLSDMFIDKDDASKITFKTPTGLGRTYPVDAFAKEDDGKGKVPAAAAAANGKETAVNGKAK” the “soluble on expression in E. coli” value was “soluble”. For “MGSRIMHVIIANGIAEKLSIHDKTSFLLGAVAPDAVHSKKEKGTSHFYAGTTKNYTRRIDYDSFFHKYESHINSPFILGYYTHLIADDNWLSGFFLPWLKNRIENDETIAPLYYNDFKLLNAKLLHHYDQEQQLFSLLNQEAHIVDIEEVSKENVLAFRKYLFEDMLYPKQYLHEDLQVFTFDQIVGYIETAIEKGVFFIKQLSNEKSTSKI”, the “soluble on expression in E. coli” value was “not soluble”.
